Test results: the supplement of paper PMC7877785
± gives the uncertainty stated by the source.

Assay: self-splicing fitness, log relative to wild type (ln ratio); higher = more splicing; Tetrahymena group I intron in knt gene, E. coli kanamycin selection, DiMSum; sequences stand for … in CUCUCU…GGAGGGAAAAGUUAUCAGGCAUGCACCUGGUAGCUAGUCUUUAAACCAAUAGAUUGCAUCGGUUUAAAAGGCAAGACCGUCAAAUUGCGGGAAAGGGGUCAACAGCCGUUCAGUACCAAGUCUCAGGGGAAACUUUGAGAUGGCCUUGCAAAGGGUAUGGUAAUAAGCUGACGGACAUGGUCCUAACCACGCAGCCAAGUCCUAAGUCAACAGAUCUUCUGUUGAUAUGGAUGCAGUUCACAGACUAAAUGUCGGUCGGGGAAGAUGUAUUCUUCUCAUAAGAUAUAGUCGGACCUCUCCUUAAUGGGAGCUAGCGGAUGAAGUGAUGCAACACUGGAGCCGCUGGGAACUAAUUUGUAUGCGAAAGUAUAUUGAUUAGUUUUGGAGUACUCGUGGUCG
In short: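 A randomised library covering all eight P1ex-region intron nucleotides was built with the intron in the knt kanamycin-resistance gene on pET-22b(+) and held in E. coli BL21(DE3). Cells were grown overnight at 37°C or 30°C on LB agar, with or without 25 μg/mL kanamycin, plus 100 μg/mL carbenicillin, 50 μM IPTG and 0.2% rhamnose, and pooled colonies were amplicon-sequenced on an Illumina HiSeq 2500. DiMSum fitness is the error-weighted combination of wild-type-normalised replicate fold changes, kanamycin versus none.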

Sequence | self-splicing fitness (ln) (30 °C) | self-splicing fitness (ln) (37 °C)
CAGCAGCAAUAUUACGAUCA | -2.71 ± 0.2 | -1.88 ± 0.21
CAGCAGCAAUAUUACGAUCU | -3.54 ± 0.35 | -2.38 ± 0.19
CAGCAGCAAUAUUACGCGCA | -0.471 ± 0.13 | -0.346 ± 0.16
CAGCAGCAAUAUUACGCUCU | -3.08 ± 0.16 | -2.08 ± 0.17
CAGCAGCAAUAUUACGCUUA | -1.51 ± 0.13 | -0.645 ± 0.12
CAGCAGCAAUAUUACGGACA | -2.86 ± 0.17 | -2.28 ± 0.17
CAGCAGCAAUAUUACGGCCA | -0.605 ± 0.091 | -0.22 ± 0.11
CAGCAGCAAUAUUACGGGGA | -1.98 ± 0.18 | -2.22 ± 0.19
CAGCAGCAAUAUUACGGGGU | -3.28 ± 0.15 | -2.57 ± 0.16
CAGCAGCAAUAUUACGGGUG | -1.35 ± 0.082 | -0.904 ± 0.085
CAGCAGCAAUAUUACGGUCC | -3.63 ± 0.22 | -1.63 ± 0.2
CAGCAGCAAUAUUACGUAUC | -3.6 ± 0.19 | -2.13 ± 0.13
CAGCAGCAAUAUUACGUCAC | -1.69 ± 0.24 | -2.75 ± 0.28
CAGCAGCAAUAUUACGUCCC | -2.38 ± 0.47 | –
CAGCAGCAAUAUUACGUCCU | -2.31 ± 0.17 | -0.614 ± 0.14
CAGCAGCAAUAUUACGUCUA | -0.137 ± 0.045 | 0.377 ± 0.06
CAGCAGCAAUAUUACGUCUC | -1.15 ± 0.064 | -0.898 ± 0.075
CAGCAGCAAUAUUACGUGCA | -1.03 ± 0.061 | -0.673 ± 0.066
CAGCAGCAAUAUUACGUGCU | -3.3 ± 0.13 | -1.94 ± 0.12
CAGCAGCAAUAUUACGUGUA | -2.97 ± 0.078 | -1.65 ± 0.072
CAGCAGCAAUAUUACGUUUC | -3.76 ± 0.17 | -2.53 ± 0.2
CAGGAGCAAUAUUACGAAAU | -2.55 ± 0.33 | –
CAGGAGCAAUAUUACGAACC | – | -1.07 ± 0.24
CAGGAGCAAUAUUACGACUG | – | -2.83 ± 0.38
CAGGAGCAAUAUUACGAGAG | -1.92 ± 0.15 | -1.67 ± 0.17
CAGGAGCAAUAUUACGAUAU | -1.88 ± 0.17 | -2.37 ± 0.35
CAGGAGCAAUAUUACGAUGC | – | -2.83 ± 0.26

Sequence | self-splicing fitness (ln) (30 °C) | self-splicing fitness (ln) (37 °C)
CAGGAGCAAUAUUACGCAAA | -4.2 ± 0.46 | –
CAGGAGCAAUAUUACGCAAG | -2.98 ± 0.35 | -1.06 ± 0.27
CAGGAGCAAUAUUACGCGAA | -1.4 ± 0.17 | -2.07 ± 0.23
CAGGAGCAAUAUUACGCGAU | -3.06 ± 0.28 | –
CAGGAGCAAUAUUACGCGUC | -4.22 ± 0.36 | -3.04 ± 0.4
CAGGAGCAAUAUUACGCUAG | -1.28 ± 0.23 | -1.1 ± 0.27
CAGGAGCAAUAUUACGCUGG | -1.96 ± 0.26 | -0.934 ± 0.24
CAGGAGCAAUAUUACGCUGU | -3.13 ± 0.43 | -2.65 ± 0.44
CAGGAGCAAUAUUACGGAAC | -3.67 ± 0.43 | –
CAGGAGCAAUAUUACGGAGA | -2.81 ± 0.28 | -2.34 ± 0.37
CAGGAGCAAUAUUACGGGCA | -2.48 ± 0.15 | -2.35 ± 0.22
CAGGAGCAAUAUUACGGUCU | -3.85 ± 0.22 | -2.84 ± 0.17
CAGGAGCAAUAUUACGUACG | -1.06 ± 0.088 | 0.312 ± 0.13
CAGGAGCAAUAUUACGUAGG | -0.929 ± 0.1 | 0.172 ± 0.11
CAGGAGCAAUAUUACGUAUG | -2.27 ± 0.082 | -1.5 ± 0.11
CAGGAGCAAUAUUACGUGGG | -2.85 ± 0.18 | -2.31 ± 0.15
CAGGAGCAAUAUUACGUGUU | -3.24 ± 0.17 | -2.55 ± 0.27
CAGGAGCAAUAUUACGUUGU | -3.34 ± 0.17 | -2.26 ± 0.19
CAGUAGCAAUAUUACGAAGC | – | -3.05 ± 0.32
CAGUAGCAAUAUUACGACCA | -0.792 ± 0.28 | -0.375 ± 0.27
CAGUAGCAAUAUUACGAGAC | -3.08 ± 0.24 | -1.31 ± 0.28
CAGUAGCAAUAUUACGAUGC | -3.51 ± 0.28 | -2.67 ± 0.3
CAGUAGCAAUAUUACGCAGC | -3.05 ± 0.34 | -1.3 ± 0.33
CAGUAGCAAUAUUACGCCGA | -3.13 ± 0.35 | -0.00684 ± 0.18
CAGUAGCAAUAUUACGCCUU | -1.35 ± 0.4 | –
CAGUAGCAAUAUUACGCGAC | – | -1 ± 0.32
CAGUAGCAAUAUUACGCGAU | -2.39 ± 0.28 | -2.67 ± 0.34

Sequence | self-splicing fitness (ln) (30 °C) | self-splicing fitness (ln) (37 °C)
CAGUAGCAAUAUUACGCGCU | -1.56 ± 0.26 | -1.28 ± 0.27
CAGUAGCAAUAUUACGCUUU | -4.27 ± 0.24 | -1.93 ± 0.17
CAGUAGCAAUAUUACGGCAC | -2.42 ± 0.21 | -2.06 ± 0.25
CAGUAGCAAUAUUACGGCGA | -2.45 ± 0.26 | -1.9 ± 0.29
CAGUAGCAAUAUUACGGCUG | -3.85 ± 0.47 | -2.37 ± 0.34
CAGUAGCAAUAUUACGGGGA | -3.9 ± 0.4 | -2.23 ± 0.21
CAGUAGCAAUAUUACGGUGC | -3.8 ± 0.28 | -3.2 ± 0.31
CAGUAGCAAUAUUACGGUGU | -3.63 ± 0.3 | -0.678 ± 0.15
CAGUAGCAAUAUUACGUACA | -1.46 ± 0.14 | -1.83 ± 0.16
CAGUAGCAAUAUUACGUCCC | – | -1.76 ± 0.4
CAUAAGCAAUAUUACGAACG | -0.246 ± 0.074 | -0.0693 ± 0.087
CAUAAGCAAUAUUACGAUAC | – | -2.28 ± 0.34
CAUAAGCAAUAUUACGAUCG | -0.428 ± 0.1 | -0.532 ± 0.11
CAUAAGCAAUAUUACGAUGC | -3.14 ± 0.19 | -2.34 ± 0.28
CAUAAGCAAUAUUACGAUGU | -3.66 ± 0.14 | -2.3 ± 0.14
CAUAAGCAAUAUUACGAUUC | -3.25 ± 0.2 | -3.11 ± 0.26
CAUAAGCAAUAUUACGCAAG | -2.14 ± 0.11 | -0.944 ± 0.13
CAUAAGCAAUAUUACGCGCU | -3.52 ± 0.28 | -2.34 ± 0.2
CAUAAGCAAUAUUACGCGGA | -3.61 ± 0.24 | -1.68 ± 0.16
CAUAAGCAAUAUUACGCUCA | -1.25 ± 0.088 | -1.18 ± 0.11
CAUAAGCAAUAUUACGGCAC | -2.85 ± 0.22 | -2.59 ± 0.21
CAUAAGCAAUAUUACGGGAG | -1.96 ± 0.097 | -1.14 ± 0.095
CAUAAGCAAUAUUACGGGUG | -2.3 ± 0.08 | -1.17 ± 0.078
CAUAAGCAAUAUUACGGUGA | -3.65 ± 0.27 | -2.36 ± 0.23
CAUAAGCAAUAUUACGUAAC | -3.03 ± 0.23 | -2.1 ± 0.26
CAUAAGCAAUAUUACGUAGC | -3.15 ± 0.17 | -2.96 ± 0.2
